Assay results from article PMC7335425 (Cell, 2020).
Each block holds one substance with its values, some of them ahead of it.

What was measured:
Test in all cases: negative stain EM
[1] = target: LetB ΔPLL3 mutant, TM helix deleted (E. coli) (UniProt P76272)
[2] = target: LetB ΔPLL2 mutant, TM helix deleted (E. coli) (UniProt P76272)
[3] = target: LetB six-ring truncation mutant (ring 6 removed), TM helix deleted (E. coli) (UniProt P76272)
[4] = target: MCE protein with six MCE domains from Pseudomonas aeruginosa (Pseudomonas aeruginosa)

- stoichiometry N [1]: 6
Substance: LetB ΔPLL3 mutant, TM helix deleted (from UniProt P76272 43-877) (domain or fragment)

- stoichiometry N [2]: 6
Substance: LetB ΔPLL2 mutant, TM helix deleted (from UniProt P76272 43-877) (domain or fragment)

- stoichiometry N [3]: 6
Substance: LetB six-ring truncation mutant (ring 6 removed), TM helix deleted (from UniProt P76272 43-877) (domain or fragment)

Substance: MCE protein with six MCE domains from Pseudomonas aeruginosa (natural protein)
- stoichiometry N [4]: 6
